Test results as given in US20070197431A1 (published 2007).

Assays:
human ErbB2 [1] = biological target: T1, human ErbB2 (human, UniProt P04626 23-1255); experiment: co-immunoprecipitation from co-infected Sf9 cells, anti-FLAG blot
From the text: (§1) Baculovirus encoding Nrdp1 tagged at its amino terminus with FLAG epitope was created as described previously (Guy, P. M., et al., Proc. Natl. Acad. Sci USA., 91:8132-36 ((1994)). Baculoviruses encoding human EGF receptor, human ErbB2, bovine ErbB3 or human ErbB4 have been described previously (Carraway, K. L., III, et al., Nature, 387:512-16 (1997)). For co-immunoprecipitation experiments Sf9 cells were infected with receptor viruses and co-infected either wild type or Nrdp1 baculovirus. 48 hours after infection cleared NP-40 lysates were immunoprecipitated with receptor antibodies and blotted with antibodies directed to receptors or FLAG epitope as described above.

human EGF receptor [2] = biological target: T2, human EGF receptor (human, UniProt P00533 25-1210); experiment: as above
From the text: as §1

human ErbB2 [3] = biological target: T1, human ErbB2; experiment: GST pull-down from Sf9 lysates, receptor blot
Method: (§2) For pull-down experiments receptors were expressed in Sf9 insect cells, cleared lysates were incubated for 1.5 hours with 3 μg immobilized GST or GST-32, and beads were washed as previously described (Carraway, K. L., III, et al., Nature, 387:512-16 (1997)). MDA-MB-453 cells were treated for 5 minutes without or with 10 nM NRG1β, lysed as previously described (Sweeney, C., et al., J. Biol. Chem., 275:19803-07 (2000)), and cleared lysates were incubated with GST and GST-32 as above. Precipitated proteins were resolved by 8% SDS-PAGE, transferred to nitrocellulose and visualized by blotting with anti-phosphotyrosine (RC20, Transduction Laboratories) or anti-receptor antibodies.
(§3) To confirm the specificity of the interaction we employed a GST fusion of clone 32 in receptor pull-down experiments. A GST fusion of clone 32 was used instead of full-length Nrdp1 because we observed that GST-Nrdp1 is insoluble in bacteria. We have expressed each of the ErbB family members in Sf9 cells (Carraway, K. L., III, et al., Nature, 387:512-16 (1997)), incubated cleared lysates with immobilized GST or GST-32, and analyzed associated receptors by blotting precipitates with receptor-specific antibodies. We again observed that clone 32 is capable of physically interacting with ErbB3 and ErbB4, but not EGF receptor or ErbB2.

human EGF receptor [4] = biological target: T2, human EGF receptor; experiment: GST pull-down from Sf9 lysates, receptor blot
Method: as §2, §3

B1: Nrdp1 tagged at its amino terminus with FLAG epitope (baculovirus, Sf9 insect cells) (other)
chain: DYKDDDDKMGYDVTRFQGDVDEDLICPICSGVLEEPVQAPHCEHAFCNACITQWFSQQQTCPVDRSVVTVAHLRPVPRIMRNMLSKLQIACDNAVFGCSAVVRLDNLMSHLSDCEHNPKRPVTCEQGCGLEMPKDELPNHNCIKHLRSVVQQQQTRIAELEKTSAEHKHQLAEQKRDIQLLKAYMRAIRSVNPNLQNLEETIEYNEILEWVNSLQPARVTRWGGMISTPDAVLQAVIKRSLVESGCPASIVNELIENAHERSWPQGLATLETRQMNRRYYENYVAKRIPGKQAVVVMACENQHMGDDMVQEPGLVMIFAHGVEEI
notes: Construct used for the Sf9 co-immunoprecipitations; also called FLAG-Nrdp1; neuregulin receptor degradation protein-1
binding result (human ErbB2 [1]): no binding
binding result (human EGF receptor [2]): no binding

B2: GST fusion protein of clone 32 encompassing Nrdp1 residues I135 to I317 (other)
chain: IKHLRSVVQQQQTRIAELEKTSAEHKHQLAEQKRDIQLLKAYMRAIRSVNPNLQNLEETIEYNEILEWVNSLQPARVTRWGGMISTPDAVLQAVIKRSLVESGCPASIVNELIENAHERSWPQGLATLETRQMNRRYYENYVAKRIPGKQAVVVMACENQHMGDDMVQEPGLVMIFAHGVEEI
notes: Expressed in bacteria and immobilized on beads (3 ug) for the pull-downs; also called GST-32; GST fusion of clone 32; not shown: glutathione S-transferase encoded by the pGEX vector
binding result (human ErbB2 [3]): no binding (tested: 3 ug immobilized GST-32)
binding result (human EGF receptor [4]): no binding (tested: 3 ug immobilized GST-32)
